The nature of this data set: 14C assay: 14CO2 capture from [14C]-carboxyl-labeled dicamba with IPTG-induced recombinant E. coli cells. Conditions: for Dicamba Decarboxylase Activity: IPTG-induced recombinant E. coli cells, 14CO2 from [14C]-carboxyl-labeled dicamba; for Enzymatic Detection level: dicamba decarboxylation activity.

B1: 72 (protein)
chain: MADCPCCVSPKRRRLLGSVSAIAAGMMAGLPALAAQPSTAAAGTGKPLSIDIHAHYYSESFLGLLGGEGKQFGGHFFRNDDSFTFQTPAGGLGPLPMKFIDVEQRVRDMDNSGVDVQAISLSVPMVYWADRTLNAKLARAWNTAASDVHRKHPTRFVVLATLPMLNANDAIDELEFAAGLPGVRGIYMGTNINNRDLDDPLFSPIFKRIEQLNLPIFLHPQQTVGGARLADFYLSNLLGNPFDTAIAASHLILGGVLDKYPALHFSLPHAGGALPILVGRIDAGWSMRSETKRVAQKPSSYLRRFSYDTISHSGPTLDFLIRNIGADRLVLGSDYCFDMGYEQPVRFLDRLALPDDQKRMVVGGNAARLLNL
modifications: Cupriavidus necator
In the case of B1, the “Dicamba Decarboxylase Activity” value is listed as “Low” and the “Enzymatic Detection level” value is recorded as “Low”.

B2: 70 (protein, listed as Alicyclobacillus acidocaldarius)
chain: MAIEPNRAADVHTHFLPTEVLEFLKREPRIQVDLERRAPDKEPFLTVEGRWSFELKRMFVDFEAFASAYRQAGIGLALVSPLPQLFVYHLPAEMGAQVAEVYNDALRDVLAPHRERFRPLATLPLADPTAAARELERRMDEGFVGAIVGPGVGEALIGDEAFWPLWEVADARRAVLFLHPLLHADPRAARLMLPNLVGVPWETTLAAAHLVLSGLLDRYPGARVLLAHGGGFLPYQIGRIEQGYDVWPQVRGRLQDRPTAYLRRMFYDNVLWSDAALRCLIDVVGADRVLAGSDFPFDLSAWPPRPGADVSVLAGGSGREGRLS
As to B2, the “Dicamba Decarboxylase Activity” value was “Low” and the “Enzymatic Detection level” value was “Low”.

B3: 77 (protein)
chain: MALIDLHAHAPHPGYYNQHPHWGPFFERHEDGDVKLRVGDWILTLGSPERKALVRAGKGPTVEEYQARWADPKVRLAGMDAAGQNAQVVSVPSHCYMYWAEKEFSVPFATKVNDTFAEYCSAAPDRLMFWAHAALNAPEQAALELRRACTELGAKGLVAGGANFGGLEFDSPELDPVWKVLCDLDLPMFIHGYNQSVTWGKKANDDRYETTAIVGMQYDETRCFWNLVCGGVLDRFPGLKVYITHGGGYVPYQLGRLAQCNGNLDVAHNKKPVLEYLKNNFYFDVELHEVPMRQALIDIIGADRVLYGSNFGGSDAVRHDLTEGLRLSDDDLQKIRWKNACKLLHLDPAKIGEPAKKQAVSA
modifications: Burkholderia xenovorans
As to B3, the “Dicamba Decarboxylase Activity” value is listed as “No” and the “Enzymatic Detection level” value was “No”.

B4: 80 (protein, listed as Cordyceps militaris)
chain: MAAASTPVVVDIHTHMYPPSYIAMLEKRQTIPLVRTFPQADEPRLILLSSELAALDAALADPAAKLPGRPLSTHFASLAQKMHFMDTNGIRVSVISLANPWFDFLAPDEAPGIADAVNAEFSDMCAQHVGRLFFFAALPLSAPVDAVKASIERVKNLKYCRGIILGTSGLGKGLDDPHLLPVFEAVADAKLLVFLHPHYGLPNEVYGPRSEEYGHVLPLALGFPMETTIAVARMYMAGVFDHVRNLQMLLAHSGGTLPFLAGRIESCIVHDGHLVKTGKVPKDRRTIWTVLKEQIYLDAVIYSEVGLQAAIASSGADRLMFGTDHPFFPPIEEDVQGPWDSSRLNAQAVIKAVGEGSSDAAAVMGLNAVRVLSLKAE
As for B4, the “Dicamba Decarboxylase Activity” value was “Low” and the “Enzymatic Detection level” value is “Low”.

B5: 82 (protein, listed as Rhodopseudomonas palustris)
chain: MAQNETPVIAIEEHYWDPEMVARFPAGENASPFSTLLTELGDVRLRAMDEAGIDVQVLSHGAPAAQKLPPDVAPELTRRVNDRLAEACARFPNRFAAFAALPTPAPEAAARELERCVRDLGFKGAMIHGLTNGLFIDDKRFWPIFEVAEKLDVPIYLHPSVPHADVTRYYYDDYAREFPTVIRPAWGFTVETATQAIRLILSRALESYPRLQIILGHLGETLPFLLWRINQALARPGQTPLDFRKQFCDHFHVTTSGFFSTPALICTMLELGIDRIMFAVDYPYVVNRDGTDWVQQLQISPDDKRKLVGGNARRLLKL
As to B5, the “Dicamba Decarboxylase Activity” value is reported as “Low” and the “Enzymatic Detection level” value is recorded as “Low”.

B6: 76 (protein, listed as Polymorphum gilvum)
chain: MAKKIDIFNHIWPEPFFKALIAHIGEMTDITMRSGAVPMMTNLDRRFEVMDMFGPDYMQVLSLASPPLEKLADPAKALELSRIGSDSLAELCQRYPERFPAFIGTAPLSNPAAVVGECRRAIEDLGAAGMQIFTNVAGKPLDLAEFEPFFEYMASAGKPVWLHPARGEAFADYQTEKRSEYEIWWTFGWPYETSAAMARLVFSRMFDKYPGLKVITHHAGGMVPFFEGRVGPGWDQMGARTTDRDLAAVRKALKRPHLDYFKEFYADTASFGSRKAIEHAIEFFGEDRVLFASDAPFDPEGGPMYIRETMRCIDSLDLTDAQRRKIYHGNATALLGLSL
On to B6, for which the “Dicamba Decarboxylase Activity” value is recorded as “No” and the “Enzymatic Detection level” value is given as “No”.

B7: 69 (protein, listed as Microbacterium testaceum)
chain: MATSTEGQDVTDVHAHLLMPGLHAEVERRVPDEVQAAADLELRRNGLASLQASGRMIGERFPRLTDVRARLAAMDEQGVDRQWVSPSPNHFYPWANEGLATWASGEANRLIAEHVALAPDRLVGLGVVPLQHPHLVVDALDDAVLGRGLAGVEISSFAGDVELSDERLESFWARAAELRAVVFLHPFGCSLDERLDRFYLSNTVGQPTENAVALSHLIFSGVLDRHPGLRLIAAHGGGYLPTAIGRSDRAWRVRPEARGCAHAPSTYLSKLWFDTVVHDERALRWLVEAAGADRVLLGSDFPFDMGLDDPVAFVRGAGLQDAEVSGILGGNAAELLRTRVHA
For the molecule B7, the “Dicamba Decarboxylase Activity” value was “No” and the “Enzymatic Detection level” value is “No”.

B8: 68 (protein, listed as Hoeflea phototrophica)
chain: MAIIDAHTHTLCPAVNEKVAGTIKPDSVPYQRDMSPESKEQDHTQFPELKIMFNQVERRLADMARMGIDRQVIAPAPGQQHYWAEPKLLAEISALQNDHVAELVARAPDRFAGIGTLPMTDPDAAVAEITRATRELGLRVFQIDSRVMERELSDASLDPIYAALEAAGAGLMIHPLGFSNGERLTPFFMVNSVAQPLEELLAFNHLVFGGVLDRFPKLKVYIAHGGGFAPFYIGRFDHAWKVRPEVNRLTPSAPSTYLRRIYFDTCVYRTDHIETLVRTVGADRVMLGSDYPFDMGDTDPLGLLNACQGLSDDEKATISSKVAIDFFGLET
As to B8, the “Dicamba Decarboxylase Activity” value is listed as “No” and the “Enzymatic Detection level” value is listed as “No”.

B9: 6 (protein)
chain: MAEILSPEESIYYSKLSNDILAEGIKKNPTRFRGFAALPTPDPIQAAMELERCIKLGGFVGAIINGHINGHYLDEIQFDPILEAADALDVPLYIHPAVPPKAIIDTYYKMNDTYAQTVMVSGGWGWHIETGVHVLRLISSGVFDRHPNLKIVIGHLGEGLPFFMHRLNNAIGGNLKKSYSTYLKENIYYTISGFNDPDLFQFVLKKVGENNIMFSSDYPFNFPKREVELFNELNISEEVREKISFKNAERILKI
modifications: Treponema brennaborense
For the molecule B9, the “Dicamba Decarboxylase Activity” value was “No” and the “Enzymatic Detection level” value is listed as “No”.

B10: 71 (protein, listed as Burkholderia dolosa)
chain: MARAGHRAARTRQSRPGDRTMTCSCCMSAGRRRVLGAFAALAGAPKGPRAASAAQPAAASKPTRGDATARNRHSRALLPGKASASWSATKASGSGGAFAWDDTTFTFRTPAGGLGPLPMKFIDVDARLRDMDASGVDVQALSLSVPMAYWGDRPFNAKLARAWNTAASRVHVRAPDRFVVLATLPMLDATDAIDELERASELPGVRGVYMGTNIDNRDLDDPRFAPVFARIEQLGLPVFLHPQQTVGGARLGDFYLSNLLGNPFDTAIAASHLILGGVLDRHPALHFTLPHAGGALPILVGRLDAGWTVRAETRRLAHQPSGYLRRFSYDTVSHSGPVLNFLIENVGIDRLVLGSDYCFDMGYEQPVRFLDRLDLTPDERAMVIGGNAGRLLRI
On to B10, for which the “Dicamba Decarboxylase Activity” value is on record as “Low” and the “Enzymatic Detection level” value is “Low”.

B11: 73 (protein, listed as Sphaerobacter thermophilus)
chain: MARIDAHAHAQPPEYLDALLASGRYESVRDAEGRIVVRERGSRFLTITPQMHHPEQRVAEMDEAGIDMQILSVTTPQVYFLQGQAAVDLARRCNDYLADIVRSYPTRFRALASVPLTADPDAAVREFVRCLDDLGMVGAIIGSNIDGRPIDDPAFDAFYAEADRRATTLFIHPMVPAGIEVMNPYALAPLVGFMFDTTLAVSRLIFSGFFERYPRVKVLVGHLGAAVPYLAGRLDIGWRSYSDCQGIPHPPTEYIRRLYLDTVSFHAPALRCALETVGPDRIVFGSDYPHVIGDVGGAIASIQQALPATTHDGVLGHTAAELFGVSA
B11: the “Dicamba Decarboxylase Activity” value is “Low” and the “Enzymatic Detection level” value is recorded as “Low”.

B12: 78 (protein, listed as Marinobacter adhaerens)
chain: MALIDLHAHAPHPDYYDQHPHWGPAFELQSDGDIKLRVGHWVLSLGAPERKQALREAHARGETLDVQEYMAKWRDPEHRLASMDAAGQNAQVLSVPSHCYMYWAEPEFGVPFAKKVNDSLAEYCSAAPDRLMFWAHAPLNVPKEAAKEIRRACTELGAKGLVAGGSNFGGLEFDSPEMDPVWEALCDLDLPMFVHGYNQSVTWGEEANTDRYETTAIVGMNYDESKCFWYMINGGVFDRFPNLKVYITHGGGFVPYQLGRMAQTNPNLDTYHNKKPFLEYLKNFYFDVELHEVPMRQAMVEVIGADRVLYGSNFGGSDAVRHDLTDDLKLSQEDLDKIRWKNACDLLHLDPNKLGKVRG
As for B12, the “Dicamba Decarboxylase Activity” value was “Low” and the “Enzymatic Detection level” value is “Low”.

B13: 75 (protein, listed as Ectocarpus siliculosus)
chain: MAKIDSYTHFACPAFMDHLEAESGHPMVFRGLFSSIPELSDIDLRIRYMDEHGIDVHCLVPLPWLECEPGLHADEGKALEACRIANDEMARVVARFPDRLIGVALIPTTTEQAMIQETTRAVKELGMAGVALFVGPTAKPPDMACFEGLYRTCEELGAVVWMHPCRPQSYADYDSYKGEGSKHQIWNTFGWIYDTSVAMVHIALAGVFRRYPGLKVVTHHHGAMVPFFTARFDTQRRNFQEVEGDDLLEDLRLFYCDTATFGESAANIQQAIDFFGKSQVLFGTDTPMDMGTRGMFTRTTIASVEALGAAPEDKESFYAGNVLDMLGERFAGISGARGAVAARPKGDSTRIAASL
Regarding B13, the “Dicamba Decarboxylase Activity” value is on record as “Low” and the “Enzymatic Detection level” value is recorded as “Low”.

B14: 74 (protein, listed as Ramlibacter tataouinensis)
chain: MATVIDVHTHMFTTKWLELLKKEGGQYNIQTRPDGQQEIFRGNTPVVIPQKGHFDWKLRIQHMDQAGIDVSVVSLTCPNVYWGGEDVSVRAAREANDNVAQAQTAYPDRIRWFASLPWEYMATVIDVHTHMFTTKWLELLKKEGGQYNIQTRPDGQQEIFRGNTPVVIPQKGHFDWKLRIQHMDQAGIDVSVVSLTCPNVYWGGEDVSVRAAREANDNVAQAQTAYPDRIRWFASLPWEYPQRAVEELERSCAQGAAGVMVLANVAGRSLTDPLFAPVWAEIDRRALPVLVHPTDPPGVDLMDMTKFDLSWSVGFMFDTTLAITRMIFEGFFDRYPNLRIIASHGGGTLPYLVGRFEKGDEVELASRRQMKRKPTDYLRHIHYDCITYNLGALQYLISVVGAGQVMFGTDWPHWVHDTRGAFANTAQLPQEQTRAVRGANAQRLFKL
Turning to B14, the “Dicamba Decarboxylase Activity” value was “Low” and the “Enzymatic Detection level” value is given as “Low”.

The record behind these values is patent publication US20140289906A1, “Compositions Having Dicamba Decarboxylase Activity and Methods of Use” (priority 2013, published 2014).
